Measurements: the supplement of paper PMC7877785
± gives the uncertainty stated by the source.

Test: self-splicing fitness, log relative to wild type (ln ratio); higher = more splicing; Tetrahymena group I intron in knt gene, E. coli kanamycin selection, DiMSum; sequences stand for … in CUCUCU…GGAGGGAAAAGUUAUCAGGCAUGCACCUGGUAGCUAGUCUUUAAACCAAUAGAUUGCAUCGGUUUAAAAGGCAAGACCGUCAAAUUGCGGGAAAGGGGUCAACAGCCGUUCAGUACCAAGUCUCAGGGGAAACUUUGAGAUGGCCUUGCAAAGGGUAUGGUAAUAAGCUGACGGACAUGGUCCUAACCACGCAGCCAAGUCCUAAGUCAACAGAUCUUCUGUUGAUAUGGAUGCAGUUCACAGACUAAAUGUCGGUCGGGGAAGAUGUAUUCUUCUCAUAAGAUAUAGUCGGACCUCUCCUUAAUGGGAGCUAGCGGAUGAAGUGAUGCAACACUGGAGCCGCUGGGAACUAAUUUGUAUGCGAAAGUAUAUUGAUUAGUUUUGGAGUACUCGUGGUCG
How it was run: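 Colonies from six replicate transformations of E. coli BL21(DE3) were pooled and amplicon-sequenced on an Illumina HiSeq 2500. The library placed an intron with all eight P1ex-region nucleotides randomised inside the knt kanamycin-resistance gene on pET-22b(+), and cells grew overnight at 37°C or 30°C on LB agar with or without 25 μg/mL kanamycin (plus 100 μg/mL carbenicillin, 50 μM IPTG, 0.2% rhamnose). Fitness is the DiMSum error-weighted combination of wild-type-normalised replicate fold changes, kanamycin versus none.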

Sequence | self-splicing fitness (ln) (30 °C) | self-splicing fitness (ln) (37 °C)
CUACAGCAAUAUUACGUUCU | -2.56 ± 0.12 | -2.42 ± 0.2
CUAGAGCAAUAUUACGAAAC | -3.57 ± 0.31 | -2.41 ± 0.39
CUAGAGCAAUAUUACGCAGA | -2.47 ± 0.37 | -3.6 ± 0.33
CUAGAGCAAUAUUACGCAGG | -2.12 ± 0.14 | -1.75 ± 0.19
CUAGAGCAAUAUUACGCGGC | -0.707 ± 0.19 | 0.756 ± 0.2
CUAGAGCAAUAUUACGGCGG | -0.275 ± 0.075 | 0.501 ± 0.1
CUAGAGCAAUAUUACGGGAG | -0.494 ± 0.052 | -0.0261 ± 0.075
CUAGAGCAAUAUUACGGGAU | -2.94 ± 0.17 | -1.96 ± 0.23
CUAGAGCAAUAUUACGUCAA | -3.76 ± 0.24 | -2.23 ± 0.21
CUAGAGCAAUAUUACGUGAA | -3.81 ± 0.23 | -2.07 ± 0.26
CUAGAGCAAUAUUACGUGGU | -4.21 ± 0.24 | -3.52 ± 0.33
CUAUAGCAAUAUUACGAUCG | -0.256 ± 0.075 | 0.439 ± 0.1
CUAUAGCAAUAUUACGCAAC | – | -2.26 ± 0.35
CUAUAGCAAUAUUACGCAGG | -2.75 ± 0.34 | –
CUAUAGCAAUAUUACGCCAU | -2.66 ± 0.39 | -2.45 ± 0.37
CUAUAGCAAUAUUACGCCUG | -0.141 ± 0.15 | -0.439 ± 0.14
CUAUAGCAAUAUUACGCGCU | -4.04 ± 0.36 | -2.61 ± 0.41
CUAUAGCAAUAUUACGCUAC | -3.66 ± 0.17 | -2.98 ± 0.2
CUAUAGCAAUAUUACGCUUA | -2.47 ± 0.24 | -2.34 ± 0.3
CUAUAGCAAUAUUACGGAAU | -3.5 ± 0.4 | –

Sequence | self-splicing fitness (ln) (30 °C) | self-splicing fitness (ln) (37 °C)
CUAUAGCAAUAUUACGGACA | -2.77 ± 0.22 | -1.1 ± 0.29
CUAUAGCAAUAUUACGGACC | – | -1.23 ± 0.34
CUAUAGCAAUAUUACGGCGC | -2.5 ± 0.28 | –
CUAUAGCAAUAUUACGGUAG | -2.21 ± 0.14 | -2.58 ± 0.2
CUAUAGCAAUAUUACGUAAG | -0.717 ± 0.058 | 0.183 ± 0.084
CUAUAGCAAUAUUACGUAGA | -3.52 ± 0.33 | -1.87 ± 0.34
CUAUAGCAAUAUUACGUCAG | -1.75 ± 0.11 | -0.591 ± 0.12
CUAUAGCAAUAUUACGUCCA | -4.03 ± 0.36 | -3.13 ± 0.4
CUAUAGCAAUAUUACGUCUA | -3.05 ± 0.36 | -3.16 ± 0.35
CUAUAGCAAUAUUACGUGAA | -4.01 ± 0.19 | -2.51 ± 0.21
CUAUAGCAAUAUUACGUGCG | -1.19 ± 0.1 | -0.322 ± 0.13
CUAUAGCAAUAUUACGUUCG | -0.385 ± 0.094 | -0.145 ± 0.14
CUAUAGCAAUAUUACGUUUU | -3.44 ± 0.16 | -2.61 ± 0.21
CUCAAGCAAUAUUACGACAC | -3.35 ± 0.29 | -2.52 ± 0.3
CUCAAGCAAUAUUACGAGCC | – | -2.67 ± 0.3
CUCAAGCAAUAUUACGAUUU | -3.68 ± 0.21 | -2.4 ± 0.25
CUCAAGCAAUAUUACGCCCA | -3.18 ± 0.4 | -2.01 ± 0.47
CUCAAGCAAUAUUACGCCGU | -3.42 ± 0.17 | -1.88 ± 0.15
CUCAAGCAAUAUUACGCGAC | -1.93 ± 0.16 | -1.45 ± 0.19
CUCAAGCAAUAUUACGCGGC | -3.21 ± 0.25 | -3.15 ± 0.34
